Data from the supplement of paper PMC7125110.
± gives the standard error. For some assays here: Fewer inactive variants are shown than the library holds.

B1: glmS ribozyme (parent)
chain: AUAAAAGCGCCAGAACUACAGAAAUGUAGUUGACGAGGAGGAGGUUUAUCGAAUUUUCGGCGGAUGCCUCCAAA

Tests used:
Conditions in all cases: with glucosamine-6-phosphate
glucosamine-6-phosphate [1] = variants of: B1; assay: kcat; higher = faster cleavage; RNA array
How it was run: (§1)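 In situ transcription by E. coli RNA polymerase produced barcoded ribozyme variants on sequenced MiSeq chips, and a hybridised Cy3 probe tracked them at 37 °C. Glucosamine-6-phosphate was flowed in at 40 μM to 10 mM in HEPES/KCl/Mg(OAc)2 buffer. kcat and KM were taken from weighted Michaelis–Menten fits of kobs values from exponential decay fits.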

glucosamine-6-phosphate [2] = variants of: B1; assay: self-cleavage kobs at 40 uM GlcN6P; higher = faster cleavage; RNA array
How it was run: as §1

glucosamine-6-phosphate [3] = variants of: B1; assay: self-cleavage kobs at 160 uM GlcN6P; higher = faster cleavage; RNA array
How it was run: as §1

glucosamine-6-phosphate [4] = variants of: B1; assay: self-cleavage kobs at 640 uM GlcN6P; higher = faster cleavage; RNA array
How it was run: as §1

glucosamine-6-phosphate [5] = variants of: B1; assay: self-cleavage kobs at 2500 uM GlcN6P; higher = faster cleavage; RNA array
How it was run: as §1

glucosamine-6-phosphate [6] = variants of: B1; assay: self-cleavage kobs at 10000 uM GlcN6P; higher = faster cleavage; RNA array
How it was run: as §1

glucosamine-6-phosphate [7] = variants of: B1; assay: KM; higher = weaker cofactor use; RNA array
How it was run: as §1

Variant	kcat (glucosamine-6-phosphate [1]) [s⁻¹]	self-cleavage kobs at 40 uM GlcN6P (glucosamine-6-phosphate [2]) [s⁻¹]	self-cleavage kobs at 160 uM GlcN6P (glucosamine-6-phosphate [3]) [s⁻¹]	self-cleavage kobs at 640 uM GlcN6P (glucosamine-6-phosphate [4]) [s⁻¹]	self-cleavage kobs at 2500 uM GlcN6P (glucosamine-6-phosphate [5]) [s⁻¹]	self-cleavage kobs at 10000 uM GlcN6P (glucosamine-6-phosphate [6]) [s⁻¹]	KM (glucosamine-6-phosphate [7]) [µM]
A12U U69A	0.000227 ± 4.2e-05	0.000106 ± 1.6e-05	0.000124 ± 2.9e-05	0.000292 ± 4.6e-05	0.000186 ± 2.9e-05	0.000303 ± 4.8e-05	
C61G C70G	1.85e-05 ± 5.6e-06						
A52C C70G	3.19e-05 ± 1.1e-05			3.3e-05 ± 1e-05	4.57e-05 ± 1.4e-05		
G13C A53C	2.72e-05 ± 1.4e-06	< 1e-05	< 1e-05			2.49e-05 ± 1.2e-05	802 ± 260
C50G C67A	0.000178 ± 2.6e-05	9.53e-05 ± 1.2e-05	0.000153 ± 2e-05	0.000259 ± 3.2e-05	0.000183 ± 2.4e-05	0.000145 ± 1.9e-05	
U30A G32A	0.00147 ± 0.00062		0.000109 ± 2.5e-05	0.000192 ± 3.2e-05	0.000485 ± 9.6e-05	0.0012 ± 0.00022	
U31A U69A	0.000105 ± 2.5e-05		7.05e-05 ± 1.9e-05	7.66e-05 ± 2.3e-05	0.000163 ± 2.9e-05	7.86e-05 ± 2.1e-05	
C58A C71G	3.85e-05 ± 8.3e-06	< 1e-05		3.58e-05 ± 1.5e-05	4.63e-05 ± 1.1e-05	2.57e-05 ± 1.2e-05	
A33G G63C	< 1e-05	< 1e-05		< 1e-05			
A15U U65C	5.03e-05 ± 3.5e-06			4.42e-05 ± 1.2e-05	4.8e-05 ± 8.3e-06	4.61e-05 ± 1.5e-05	
G59A C67G	1.27e-05 ± 2.9e-06						
U57A A64U	< 1e-05	< 1e-05				< 1e-05	
C10A U46G C50U C68U	3.67e-05 ± 1.3e-05						
C34G A52G	< 1e-05				< 1e-05		
G44A U54G	0.000522 ± 0.00012			0.000231 ± 7.3e-05	0.000634 ± 0.00013	0.000438 ± 6.2e-05	
U30A C50A A52G	< 1e-05			< 1e-05		< 1e-05	39.4 ± 20
U49G U69C	0.000152 ± 6.9e-06			8.8e-05 ± 2.4e-05	0.000131 ± 2.7e-05	0.00014 ± 3.8e-05	466 ± 86
G9A U47G	< 1e-05			< 1e-05			
A12U U65C	0.0021 ± 0.00079	4.28e-05 ± 1.2e-05	0.000217 ± 5.2e-05	0.000421 ± 9.9e-05	0.00209 ± 0.00035	0.00151 ± 0.00034	
C10A G60C	< 1e-05			< 1e-05			

Variant	kcat (glucosamine-6-phosphate [1]) [s⁻¹]	self-cleavage kobs at 40 uM GlcN6P (glucosamine-6-phosphate [2]) [s⁻¹]	self-cleavage kobs at 160 uM GlcN6P (glucosamine-6-phosphate [3]) [s⁻¹]	self-cleavage kobs at 640 uM GlcN6P (glucosamine-6-phosphate [4]) [s⁻¹]	self-cleavage kobs at 2500 uM GlcN6P (glucosamine-6-phosphate [5]) [s⁻¹]	self-cleavage kobs at 10000 uM GlcN6P (glucosamine-6-phosphate [6]) [s⁻¹]	KM (glucosamine-6-phosphate [7]) [µM]
A12U A52C A53U C70G	1.09e-05 ± 3.5e-06						
A15C G41A	0.000104 ± 4.7e-06			4.65e-05 ± 1.2e-05	8.56e-05 ± 1.8e-05	9.45e-05 ± 1.5e-05	744 ± 120
A39G C70G	0.000172 ± 3.8e-05	0.000112 ± 1.6e-05	0.000143 ± 2.3e-05	0.000314 ± 4.7e-05	0.000245 ± 3.2e-05	0.000132 ± 1.8e-05	
U30G U45A	0.0197 ± 0.0054	0.000528 ± 9.3e-05	0.00157 ± 0.00042	0.00474 ± 0.0013	0.0101 ± 0.0026	0.0239 ± 0.0066	1680 ± 600
C10U U69A	1.11e-05 ± 3.7e-06						
A39G U46C	0.00815 ± 0.0014	0.000292 ± 6.4e-05	0.00135 ± 0.00039	0.00369 ± 0.00073	0.0069 ± 0.0015	0.00601 ± 0.0018	946 ± 240
A6U A15U G63U G66A	1.95e-05 ± 6.5e-06						
G37C U54G U55G	5.85e-05 ± 2.8e-06					4.79e-05 ± 1.5e-05	2190 ± 470
C10A C34U C67G C68G	4.25e-05 ± 6.7e-06		4.7e-05 ± 8.5e-06		4.25e-05 ± 9.3e-06		
G29U G43A	< 1e-05	< 1e-05	< 1e-05				
C50G A64U	5.29e-05 ± 1.7e-05		6.24e-05 ± 1.5e-05	9.1e-05 ± 2.3e-05	5.11e-05 ± 1.7e-05		
G13A U69C	0.000255 ± 8.6e-05				0.000132 ± 2.8e-05	0.000179 ± 4.5e-05	
U49G A64G	0.00241 ± 0.00088	6.16e-05 ± 1e-05	0.00015 ± 4.1e-05	0.000414 ± 6.7e-05	0.000922 ± 0.00016	0.00232 ± 0.0003	
U56G C68G	6.61e-05 ± 1e-05				2.78e-05 ± 1.4e-05	5.46e-05 ± 8.1e-06	
G44U A53U	0.000149 ± 2.2e-05				0.00015 ± 6e-05	0.000129 ± 1e-05	
C16A C67G	4.14e-05 ± 5.2e-06			3.73e-05 ± 1.5e-05	2.82e-05 ± 1.1e-05	4.37e-05 ± 8e-06	
A14U U30C	2.9e-05 ± 1.4e-05		< 1e-05		4.54e-05 ± 1.8e-05		
A12U G37U	3.51e-05 ± 1.1e-05						
G59U C71A	1.28e-05 ± 7.6e-07						
C11A U54C	0.000278 ± 3.7e-05			3.08e-05 ± 1e-05	0.00011 ± 2.9e-05	0.000186 ± 3.4e-05	4640 ± 1100
